Square brackets hold non-standard residues; d marks the D form. Side chains are listed from the residue outwards. Ends that are not written are not given here. Peptide text beside a SMILES is read from it. * marks the point of attachment. maleimide = maleimide: 4-arm PEG5k maleimide reacting with the C-terminal Cys thiol; Cbz = O=C(OCc1ccccc1)*; CH2F = FC*
T1: death receptor 6 (DR6) protein (UniProt O75509 42-349, labelled with RED-tris-NTA second-generation dye)
T1 construct: death receptor 6 (DR6), bought recombinant protein; source: bought: Sino Biology, Inc. (Shanghai, China)
T1 sequence (looked up): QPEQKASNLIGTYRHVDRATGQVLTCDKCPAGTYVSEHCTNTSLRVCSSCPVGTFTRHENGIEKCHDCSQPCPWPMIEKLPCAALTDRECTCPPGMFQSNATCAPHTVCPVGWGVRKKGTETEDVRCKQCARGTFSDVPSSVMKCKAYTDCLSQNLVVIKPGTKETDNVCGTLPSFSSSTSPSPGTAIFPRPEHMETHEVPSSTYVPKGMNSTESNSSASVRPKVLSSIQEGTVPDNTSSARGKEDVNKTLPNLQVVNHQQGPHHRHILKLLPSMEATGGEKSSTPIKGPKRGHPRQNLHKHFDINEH

T2: death receptor 6 (DR6) protein (UniProt O75509 42-349, labelled with RED-tris-NTA second-generation dye)
T2 construct: death receptor 6 (DR6), bought recombinant protein; It is probably a soluble extracellular construct, but that is a surmise; source: bought: Sino Biology
T2 sequence (looked up): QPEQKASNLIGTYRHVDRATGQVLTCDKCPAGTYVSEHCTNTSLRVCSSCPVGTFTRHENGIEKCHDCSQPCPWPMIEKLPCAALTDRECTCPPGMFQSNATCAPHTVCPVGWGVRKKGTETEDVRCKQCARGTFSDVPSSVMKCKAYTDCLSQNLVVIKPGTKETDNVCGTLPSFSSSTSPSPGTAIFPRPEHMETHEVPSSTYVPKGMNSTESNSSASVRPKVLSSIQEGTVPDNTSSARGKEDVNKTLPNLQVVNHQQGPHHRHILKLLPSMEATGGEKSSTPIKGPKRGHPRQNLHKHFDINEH

T3: DR6 protein (Homo sapiens, UniProt O75509)
T3 construct: purchased Sino Biology, Inc. (Shanghai, China)
T3 sequence (O75509 42-655): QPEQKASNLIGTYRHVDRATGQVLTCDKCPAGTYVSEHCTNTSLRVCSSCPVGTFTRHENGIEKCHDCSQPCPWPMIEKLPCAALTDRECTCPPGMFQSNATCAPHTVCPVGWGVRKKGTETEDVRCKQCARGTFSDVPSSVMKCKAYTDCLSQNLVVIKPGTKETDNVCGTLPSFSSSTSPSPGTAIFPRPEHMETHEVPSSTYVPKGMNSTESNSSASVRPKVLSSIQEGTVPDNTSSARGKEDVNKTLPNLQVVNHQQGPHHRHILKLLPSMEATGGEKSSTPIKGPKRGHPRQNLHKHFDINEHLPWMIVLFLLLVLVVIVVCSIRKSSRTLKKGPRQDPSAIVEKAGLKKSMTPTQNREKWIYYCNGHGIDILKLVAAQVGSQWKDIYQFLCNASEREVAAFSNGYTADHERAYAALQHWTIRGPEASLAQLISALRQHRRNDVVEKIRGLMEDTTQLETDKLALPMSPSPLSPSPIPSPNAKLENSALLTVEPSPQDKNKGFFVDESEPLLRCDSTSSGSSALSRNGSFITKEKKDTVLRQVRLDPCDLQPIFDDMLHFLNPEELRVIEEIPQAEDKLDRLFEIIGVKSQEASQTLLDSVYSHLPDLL

B1: AHP-24 (peptide)
peptide: NHQRLLP
notes: heptapeptide selected from a random phage display library against DR6; source: synthetic peptide (SPPS)
B2: AHP-10 (peptide)
peptide: NGSTHER
notes: as for B1
B3: AHP-05 (peptide)
peptide: YYSGNNL
notes: as for B1
B4: AHP-01 (peptide)
peptide: WTLSINS
notes: as for B1
B5: AHP-03 (peptide)
peptide: YLPAPLP
notes: as for B1
B6: AHP-23 (peptide)
peptide: GGLSMTR
notes: as for B1
B7: AHP-13 (peptide)
peptide: SHTDTNQ
notes: as for B1
B8: AHP‐12 (peptide)
peptide: TIDATTP
notes: heptapeptide selected from a random heptapeptide M13 phage display library against DR6; also called AHP-12 (TIDATTP); source: synthetic peptide (SPPS, HPLC purified)
B9: PEG‐tAHP‐DRI (tetra‐(D‐retro‐inverso isomer of AHP‐12) substitued 4‐arm PEG5k) (other)
peptide: [dP][dT][dT][dA][dD][dI][dT]C([maleimide-4‑arm PEG5k])
modifications: also: four peptides on one 4-arm PEG5k
notes: additional Cys residue at the C-terminal, coupled to the maleimide of the PEG arm; Four peptide chains on one 4-arm PEG5k, not a polypeptide oligomer; also called PEG‐tAHP‐12; PEGylated tetrameric AHP‐DRI‐12; source: synthetic peptide conjugated to 4-arm PEG5k maleimide, dialysed
B10: AHP‐DRI‐12 (D‐retro‐inverso isomer of AHP‐12) (peptide)
peptide: [dP][dT][dT][dA][dD][dI][dT]
notes: Peptidomimetic made of D-amino acids; source: synthetic peptide (SPPS, HPLC purified)

test system: TCs over HUVECs monolayer; test: Transendothelial migration of TCs over HUVEC monolayer; type: cell-based, human; conditions: AHP-DRI-12 and PEG-tAHP-DRI 1 × 10^−6 M (AHP-DRI-12), Nec-1 30 × 10^–6 M, zVAD 100 × 10^–6 M; 48 h; compared with control; n = 3
Protocol: HUVECs (1 × 10^5) in DMEM were added into 24‐well plate transwell upper chambers and the medium was changed every 2 days. Using the EVOM resistance tester, the transendothelial resistance was measured daily. When the TEER resistance value was >200 Ωcm^2, the cells grew into a monolayer of tight connection. 2 × 10^5 GFP‐TCs were added into upper chambers. One milliliter DMEM containing 10% FBS was added into lower chambers overnight. AHP‐DRI‐12 and PEG‐tAHP‐DRI (1 ×10^–6 M AHP‐DRI‐12), Nec‐1 (30 × 10^–6 M), and zVAD (100 × 10^–6 M) were added in upper chambers, respectively. After incubation for 48 h, cells in lower chambers were observed by fluorescence microscope.^[ ^56 ^]

For `COC(=O)C[C@H](NC(=O)[C@H](C)NC(=O)[C@@H](NC(=O)OCc1ccccc1)C(C)C)C(=O)CF` [zVAD, z‐VAD‐fmk, reference compound] (Cbz-Val-Ala-Asp(OMe)-CH2F), the TCs transendothelial migration was “increased number of migrated TCs”.

biological target: hERG potassium channel (Homo sapiens, UniProt Q12809); test: Whole-cell patch clamp recording of hERG current; type: cell-based; conditions: cisapride as positive control
Protocol: In addition, some common adverse effects suffered by frequently used medications were also evaluated. The whole‐cell patch clamp recording technique was used to record the whole‐cell hERG‐potassium to measure the cardiac toxicity of peptidomimetic agents on hERG potassium channel by utilizing cisapride as positive control (Figure 6E; Figure S10, Supporting Information). […] Meanwhile, the blood biochemical indexes of ligand‐treated mice sacrificed on day 2 or day 15 were tested to examine the influences of peptidomimetic agents to liver and kidney (Figure S11, Supporting Information).

Chain of hERG potassium channel (Q12809 whole entry): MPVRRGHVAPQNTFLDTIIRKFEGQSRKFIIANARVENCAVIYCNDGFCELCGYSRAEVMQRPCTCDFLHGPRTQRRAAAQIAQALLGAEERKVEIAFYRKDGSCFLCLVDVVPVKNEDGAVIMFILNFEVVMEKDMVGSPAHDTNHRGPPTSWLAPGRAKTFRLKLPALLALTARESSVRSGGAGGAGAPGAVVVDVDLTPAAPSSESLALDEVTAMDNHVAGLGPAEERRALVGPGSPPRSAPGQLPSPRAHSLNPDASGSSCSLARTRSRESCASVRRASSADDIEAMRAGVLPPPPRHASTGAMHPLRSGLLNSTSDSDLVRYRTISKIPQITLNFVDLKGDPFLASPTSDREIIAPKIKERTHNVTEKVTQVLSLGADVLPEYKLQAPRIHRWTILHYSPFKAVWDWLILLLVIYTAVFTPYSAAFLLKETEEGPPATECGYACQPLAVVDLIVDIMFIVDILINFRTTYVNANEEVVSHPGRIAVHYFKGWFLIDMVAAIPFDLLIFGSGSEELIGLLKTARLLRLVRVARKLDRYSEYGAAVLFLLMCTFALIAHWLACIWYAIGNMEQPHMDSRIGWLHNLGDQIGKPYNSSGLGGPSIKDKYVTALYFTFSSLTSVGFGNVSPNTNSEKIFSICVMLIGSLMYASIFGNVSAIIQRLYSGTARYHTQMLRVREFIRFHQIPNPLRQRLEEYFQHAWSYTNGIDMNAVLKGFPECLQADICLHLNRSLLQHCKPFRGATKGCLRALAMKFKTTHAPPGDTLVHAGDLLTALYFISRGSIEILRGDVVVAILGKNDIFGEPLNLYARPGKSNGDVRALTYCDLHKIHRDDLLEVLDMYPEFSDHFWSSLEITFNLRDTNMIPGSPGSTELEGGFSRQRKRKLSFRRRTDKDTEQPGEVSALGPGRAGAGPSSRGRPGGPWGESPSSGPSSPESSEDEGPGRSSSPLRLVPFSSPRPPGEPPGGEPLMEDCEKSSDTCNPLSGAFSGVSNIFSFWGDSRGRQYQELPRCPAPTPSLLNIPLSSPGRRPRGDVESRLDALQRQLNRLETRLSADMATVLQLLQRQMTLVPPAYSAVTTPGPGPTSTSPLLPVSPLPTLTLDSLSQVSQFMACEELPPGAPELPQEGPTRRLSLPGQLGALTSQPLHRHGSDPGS

With `CC[C@@H](C)[C@@H](NC(=O)[C@@H](CC(=O)O)NC(=O)[C@@H](C)NC(=O)[C@H](NC(=O)[C@H](NC(=O)[C@H]1CCCN1)[C@H](C)O)[C@H](C)O)C(=O)N[C@@H](C(=O)O)[C@H](C)O` [AHP-DRI-12] (H-[dP][dT][dT][dA][dD][dI][dT]-OH) the “inhibitory effect on hERG channels” value was “no significant inhibitory effect”.

test system: HUVECs; test: Apoptosis analysis, annexin V-FITC/PI flow cytometry; type: cell-based, human; conditions: 24 h, rhTRAIL 100 ng mL^–1 as positive control
Protocol: To evaluate the number of apoptotic cells after treatment of AHP‐DRI‐12 and PEG‐tAHP‐DRI, 5 × 10^5 HUVECs were seeded in six‐well plates and treated with rhTRAIL (100 ng mL^–1, Peprotech) or AHP‐DRI‐12 and PEG‐tAHP‐DRI (0.1 × 10^–6, 1.0 × 10^–6, 10 × 10^–6 M AHP‐DRI‐12). After incubating for 24 h, HUVECs were harvested and resuspended in 100 µL binding buffer, and then stained with FITC‐labeled annexin V and propidium iodide (PI) (BD Biosciences) according to the manufacturer's instructions. The apoptotic number of HUVECs was measured by flow cytometry.

In the case of TRAIL, the HUVECs undergoing apoptosis is reported as 30%.

biological target: T1, death receptor 6 (DR6) protein; test: MST; DR6 protein labelled with RED-tris-NTA second-generation dye, final 50 x 10^-9 M; peptide prepared at 20 x 10^-6 M, diluted serially 1:1 in PBS-T over 12 tubes and mixed with an equal volume of labelled DR6; NanoTemper Monolith NT.015; conditions: both partners purified

In order of falling Kd:
1. B6  4.46 µM
2. B4  1.15 µM
3. B7  1.15 µM
4. B3  1.1 µM
5. B1  1.09 µM
6. B5  0.689 µM
7. B2  0.528 µM

biological target: T2, death receptor 6 (DR6) protein; test: MST; DR6 protein labelled with RED-tris-NTA second-generation dye, final 50 × 10^-9 M; peptides prepared at 20 × 10^-6 M and diluted serially 1:1 over 12 tubes in PBS-T; NanoTemper Monolith NT.015; conditions: both partners purified

In order of rising Kd:
1. B9  0.0511 µM
2. B10  0.225 µM
3. B8  0.322 µM

test system: not listed separately; test: Pharmacokinetic study after intravenous injection; type: in vivo; conditions: SD rats, FITC-labeled, blood samples 0.5-72 h, microplate reader, n = 3
Protocol: To investigate the pharmacokinetic profile of AHP‐DRI‐12 and PEG‐tAHP‐DRI, SD rats were intravenously injected with FITC‐labeled AHP‐DRI‐12 and PEG‐tAHP‐DRI and blood samples were collected at 0.5, 1, 2, 4, 6, 24, 30, 48, 54, and 72 h. The DR6‐targeting peptide level of blood samples was measured by a microplate reader.

For `CC[C@@H](C)[C@@H](NC(=O)[C@@H](CC(=O)O)NC(=O)[C@@H](C)NC(=O)[C@H](NC(=O)[C@H](NC(=O)[C@H]1CCCN1)[C@H](C)O)[C@H](C)O)C(=O)N[C@@H](C(=O)O)[C@H](C)O` [AHP-DRI-12] (H-[dP][dT][dT][dA][dD][dI][dT]-OH), the “half-life (T1/2)” value was 7.8 h.

test system: not listed separately; test: In vivo safety analysis in healthy mice; set-up: species or system C57BL/6 mice; conditions: healthy mice, intravenous, 0.2 µg g^–1 AHP-DRI-12; sacrificed day 2 or day 15
Protocol: For evaluating the toxicity of peptides in vivo, 6 week old healthy mice were intravenously injected with AHP‐DRI‐12 and PEG‐tAHP‐DRI (0.2 µg g^–1 AHP‐DRI‐12). After 2 and 15 days, mice were sacrificed and serum samples were collected for the biochemical analysis (ALT, AST, BRU, and URE). Tissue samples from various organs were collected for tissue sections. The tissue sections were analyzed by H&E staining and immunohistochemistry analysis.

In the case of `CC[C@@H](C)[C@@H](NC(=O)[C@@H](CC(=O)O)NC(=O)[C@@H](C)NC(=O)[C@H](NC(=O)[C@H](NC(=O)[C@H]1CCCN1)[C@H](C)O)[C@H](C)O)C(=O)N[C@@H](C(=O)O)[C@H](C)O` [AHP-DRI-12] (H-[dP][dT][dT][dA][dD][dI][dT]-OH), the “damage to liver or kidney, blood biochemical indexes (ALT, AST, BRU, URE)” value is reported as “could not cause any damage to liver or kidney”.

biological target: T3, DR6 protein; test: KD of DR6-targeting peptides for binding to DR6 protein by MST; conditions: Tables S1 and S2, average of three independent experiments in triplicate, NB = No binding, read-out: KD ± SEM
Protocol: For labeling DR6 protein with Red‐tris‐NTA second‐generation dye, equal volume of DR6 protein (200 × 10^–9 M) and dye (100 × 10^–9 M) were mixed. The solution was incubated for 30 min at room temperature and centrifuged for 10 min at 4 ℃ and 15 000 × g. The DR6 protein was labeled and ready for the binding assay. Prepare 25 µL of the DR6‐targeting peptides at 20 × 10^–6 M and add 10 µL of the PBS‐T into the PCR tubes 2–12. Transfer 20 µL DR6‐targeting peptides into the PCR tube 1 and then transfer 10 µL of the DR6‐targeting peptides from tube 1 to tube 2 with a pipette and mix by pipetting up and down multiple times. Transfer 10 µL to tube 3 and mix. Repeat the procedure for tube 4–12. Add 10 µL of labeled protein to each tube (1–12) and mix by pipetting. The final DR6 protein concentration was 50× 10^−9 M. Load the capillaries and measure the samples by NanoTemper Monolith NT.015.^[ ^51 , ^52 ^]

In order of falling Kd:
1. CC[C@@H](C)[C@@H](NC(=O)[C@H](N)[C@H](C)O)C(=O)N[C@H](CC(=O)O)C(=O)N[C@H](C)C(=O)N[C@@H](C(=O)N[C@@H](C(=O)N1CCC[C@@H]1C(=O)O)[C@H](C)O)[C@H](C)O [AHP-D-12] (H-[dT][dI][dD][dA][dT][dT][dP]-OH)  55.1 ± 27.6 µM
2. CC(C)C[C@@H](NC(=O)[C@H]1CCCN1C(=O)[C@@H](C)NC(=O)[C@H]1CCCN1C(=O)[C@@H](CC(C)C)NC(=O)[C@H](N)Cc1ccc(O)cc1)C(=O)N1CCC[C@@H]1C(=O)O [AHP-D-03] (H-[dY][dL][dP][dA][dP][dL][dP]-OH)  4.734 ± 0.0088 µM
3. C[C@H](O)[C@@H](NC(=O)[C@@H](CC(=O)O)NC(=O)[C@H](NC(=O)[C@@H](Cc1c[nH]cn1)NC(=O)[C@H](N)CO)[C@H](C)O)C(=O)N[C@H](CC(N)=O)C(=O)N[C@H](CCC(N)=O)C(=O)O [AHP-D-13] (H-[dS][dH][dT][dD][dT][dN][dQ]-OH)  3.174 ± 0.0088 µM
4. CC(C)C[C@@H](NC(=O)[C@H]1CCCN1C(=O)[C@@H](C)NC(=O)[C@H]1CCCN1C(=O)[C@@H](CC(C)C)NC(=O)[C@H]1CCCN1)C(=O)N[C@H](Cc1ccc(O)cc1)C(=O)O [AHP-DRI-03] (H-[dP][dL][dP][dA][dP][dL][dY]-OH)  1.219 ± 0.00702 µM

biological target: T1, death receptor 6 (DR6) protein; test: MST; DR6 protein labelled with RED-tris-NTA second-generation dye, final 50 x 10^-9 M; peptide prepared at 20 x 10^-6 M, diluted serially 1:1 in PBS-T over 12 tubes and mixed with an equal volume of labelled DR6; NanoTemper Monolith NT.015; conditions: both partners purified; remark: another data set of the same source

B7 showed a Kd of 0.457 ± 0.0116 µM.
